Publication PMC11371196, “PLASMODESMATA-LOCATED PROTEIN 6 regulates plasmodesmal function in Arabidopsis vasculature” (The Plant Cell, 2024)
Where no end group is shown, it is not given here.

Assays:
[1] = target: free MBP (UniProt P0AEX9 27-396 = MBP); test: pull-down; 1 μg biotinylated peptide with 1 μg MBP or MBP fusion protein in 300 μL binding buffer (50 mM Tris pH 7.5, 150 mM NaCl, 0.05% NP-40), 4 °C overnight; Dynabeads MyOne Streptavidin C1; immunoblot with MBP antibody; settings: both partners purified
[2] = target: T1, maltose binding protein fused SUS6 (Arabidopsis thaliana, UniProt Q9FX32 1-942); test: as above; settings: both partners purified
T1 construct: SUCROSE SYNTHASE 6 (SUS6), Arabidopsis thaliana, At1G73370; also called MBP-SUS6; pET-MBP-SUS6; source: E. coli Rosetta, purified (amylose resin); not shown: MBP, N-terminal, kept
T1 sequence (Q9FX32 whole entry, the tested form may be a part): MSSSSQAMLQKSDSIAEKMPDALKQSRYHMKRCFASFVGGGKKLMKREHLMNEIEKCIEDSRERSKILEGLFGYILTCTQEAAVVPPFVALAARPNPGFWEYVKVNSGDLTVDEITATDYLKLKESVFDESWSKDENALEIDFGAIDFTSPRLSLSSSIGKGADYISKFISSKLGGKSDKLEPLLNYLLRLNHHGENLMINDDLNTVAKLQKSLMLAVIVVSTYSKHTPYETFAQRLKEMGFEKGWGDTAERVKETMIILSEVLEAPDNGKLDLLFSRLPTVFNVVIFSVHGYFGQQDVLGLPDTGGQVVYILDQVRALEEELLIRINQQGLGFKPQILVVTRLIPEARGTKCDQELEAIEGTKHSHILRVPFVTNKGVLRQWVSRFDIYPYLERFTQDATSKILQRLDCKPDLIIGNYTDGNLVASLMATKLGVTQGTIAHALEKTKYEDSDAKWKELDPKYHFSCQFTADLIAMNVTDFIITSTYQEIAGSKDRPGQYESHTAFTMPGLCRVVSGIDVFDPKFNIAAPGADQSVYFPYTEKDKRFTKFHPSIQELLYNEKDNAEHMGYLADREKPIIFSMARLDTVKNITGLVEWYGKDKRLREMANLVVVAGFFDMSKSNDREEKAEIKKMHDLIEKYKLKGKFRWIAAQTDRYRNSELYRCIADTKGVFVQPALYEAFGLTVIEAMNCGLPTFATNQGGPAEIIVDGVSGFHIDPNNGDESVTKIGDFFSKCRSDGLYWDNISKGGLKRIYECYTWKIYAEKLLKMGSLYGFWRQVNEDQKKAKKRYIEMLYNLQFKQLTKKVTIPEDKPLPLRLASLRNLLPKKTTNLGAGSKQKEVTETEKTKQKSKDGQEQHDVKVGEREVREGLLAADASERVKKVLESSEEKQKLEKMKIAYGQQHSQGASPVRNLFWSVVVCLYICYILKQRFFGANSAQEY

B1: biotinylated C-terminal tail of PDLP7 (peptide)
peptide: RGVCSRGGDFSILHSFTLI
modifications: also: biotin (position not given here)
notes: C-terminal tail of PDLP7, Arabidopsis thaliana, At5G37660; also called PDLP7-CT-biotin; source: synthetic peptide, bought: PEPTIDE 2.0
Question: Does B1 bind [1]?
Answer: binds

B2: biotinylated C-terminal tail of PDLP6 (peptide)
peptide: AKSCERGKGGK
modifications: also: biotin (position not given here)
notes: C-terminal tail of PDLP6, which faces the cytoplasmic sleeve; Arabidopsis thaliana, At2g01660; also called PDLP6-CT-biotin; source: synthetic peptide, bought: PEPTIDE 2.0
Question: Does B2 bind [2]?
Answer: binds

B3: biotinylated C-terminal tail of PDLP5 (peptide)
peptide: GKCCRKLQDEKWCK
modifications: cysteine pairing not given here; also: biotin (position not given here)
notes: C-terminal tail of PDLP5, Arabidopsis thaliana, At1g70690; also called PDLP5-CT-biotin; source: synthetic peptide, bought: PEPTIDE 2.0
Question: Does B3 bind [2]?
Answer: binds
